From US20040009897A1

Assays:
[1] = biological target: human recombinant soluble CD4 (human) (UniProt P01730); assay: competitive ELISA on rsCD4; competitor mAb B4-HRP; unlabelled mAb B4 at 20 µg/mL, positive control run with week 17 sera
[2] = biological target: human recombinant soluble CD4 (human) (UniProt P01730); assay: competitive ELISA on rsCD4; competitor mAb B4-HRP; unlabelled mAb B4 at 20 µg/mL, positive control run with week 9 sera
[3] = biological target: human recombinant soluble CD4 (human) (UniProt P01730); assay: competitive ELISA on rsCD4; competitor mAb B4-HRP; unlabelled mAb B4 at 2.0 µg/mL, positive control run with week 9 sera
[4] = biological target: human recombinant soluble CD4 (human) (UniProt P01730); assay: competitive ELISA on rsCD4; competitor mAb B4-HRP; unlabelled mAb B4 at 20 µg/mL, positive control run with week 11 sera
[5] = biological target: human recombinant soluble CD4 (human) (UniProt P01730); assay: competitive ELISA on rsCD4; competitor mAb B4-HRP; unlabelled mAb B4 at 2.0 µg/mL, positive control run with week 17 sera
[6] = biological target: human recombinant soluble CD4 (human) (UniProt P01730); assay: competitive ELISA on rsCD4; competitor mAb B4-HRP; unlabelled mAb B4 at 2.0 µg/mL, positive control run with week 11 sera

% Inhibition [1]: 48.7%
% Inhibition [2]: 63%
% Inhibition [3]: 23.5%
% Inhibition [4]: 63%
% Inhibition [5]: 11.7%
% Inhibition [6]: 11.7%
Substance: mAb B4 (anti-binding site monoclonal antibody), unlabelled, purified
